The values that follow come from paper PMC8586334.

For assay [1], the target named is S. cerevisiae replication protein A (RPA), wild type heterotrimer (Rfa1, Rfa2, Rfa3) (S. cerevisiae) (UniProt P22336).
Assay [2] has as its target S. cerevisiae RPA-SSL heterotrimer (Rfa1-F11S, I14S, F15L; Rfa2; Rfa3) (S. cerevisiae) (UniProt P22336).

S. cerevisiae RPA-SSL heterotrimer (Rfa1-F11S, I14S, F15L; Rfa2; Rfa3) (S. cerevisiae), sequence (P22336 whole entry F11S/I14S/F15L, chain 1 of 3): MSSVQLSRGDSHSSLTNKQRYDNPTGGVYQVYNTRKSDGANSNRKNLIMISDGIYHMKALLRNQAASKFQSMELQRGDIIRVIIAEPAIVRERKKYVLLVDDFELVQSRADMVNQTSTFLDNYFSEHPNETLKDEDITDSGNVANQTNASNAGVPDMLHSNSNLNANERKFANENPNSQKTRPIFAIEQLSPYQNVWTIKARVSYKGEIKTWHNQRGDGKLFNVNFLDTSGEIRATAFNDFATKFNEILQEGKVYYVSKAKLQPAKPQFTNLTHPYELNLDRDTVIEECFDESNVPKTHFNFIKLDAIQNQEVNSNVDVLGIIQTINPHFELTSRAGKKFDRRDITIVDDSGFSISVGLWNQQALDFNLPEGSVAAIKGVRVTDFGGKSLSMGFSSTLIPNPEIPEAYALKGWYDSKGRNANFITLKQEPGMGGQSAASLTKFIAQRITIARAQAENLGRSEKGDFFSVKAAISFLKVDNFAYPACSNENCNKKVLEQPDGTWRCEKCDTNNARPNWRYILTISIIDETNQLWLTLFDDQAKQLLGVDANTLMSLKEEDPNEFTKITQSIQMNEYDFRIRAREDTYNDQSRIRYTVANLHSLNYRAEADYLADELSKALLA
S. cerevisiae RPA-SSL heterotrimer (Rfa1-F11S, I14S, F15L; Rfa2; Rfa3) (S. cerevisiae), sequence (P26754 whole entry, chain 2 of 3, further chain): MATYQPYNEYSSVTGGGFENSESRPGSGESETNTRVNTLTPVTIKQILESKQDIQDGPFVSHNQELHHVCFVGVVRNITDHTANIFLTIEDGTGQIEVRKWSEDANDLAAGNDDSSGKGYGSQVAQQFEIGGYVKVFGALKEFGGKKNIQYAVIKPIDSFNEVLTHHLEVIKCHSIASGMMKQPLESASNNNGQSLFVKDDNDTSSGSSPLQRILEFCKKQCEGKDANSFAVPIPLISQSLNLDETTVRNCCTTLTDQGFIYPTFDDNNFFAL
S. cerevisiae RPA-SSL heterotrimer (Rfa1-F11S, I14S, F15L; Rfa2; Rfa3) (S. cerevisiae), sequence (P26755 whole entry, chain 3 of 3, further chain): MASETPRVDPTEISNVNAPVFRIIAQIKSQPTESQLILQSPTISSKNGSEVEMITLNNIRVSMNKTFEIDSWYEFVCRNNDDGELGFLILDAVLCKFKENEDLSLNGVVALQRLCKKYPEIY
S. cerevisiae replication protein A (RPA), wild type heterotrimer (Rfa1, Rfa2, Rfa3) (S. cerevisiae), sequence (P22336 whole entry, chain 1 of 3): as the sequence (P22336 whole entry F11S/I14S/F15L, chain 1 of 3) above, with S11F, S14I, L15F counted along it
S. cerevisiae replication protein A (RPA), wild type heterotrimer (Rfa1, Rfa2, Rfa3) (S. cerevisiae), sequence (P26754 whole entry, chain 2 of 3, further chain): as the sequence (P26754 whole entry, chain 2 of 3, further chain) above
S. cerevisiae replication protein A (RPA), wild type heterotrimer (Rfa1, Rfa2, Rfa3) (S. cerevisiae), sequence (P26755 whole entry, chain 3 of 3, further chain): as the sequence (P26755 whole entry, chain 3 of 3, further chain) above

Take “S. cerevisiae Dna2-E675A (nuclease-dead) (from UniProt P38859 1-1522) (enzyme)”: the ATPase activity (apparent kcat) of Dna2-E675A with ssDNA, stimulation by the RPA variant (48 nM) in assay [1] and in assay [2] was 2 fold in each case.
